How the values were obtained:
[1] = molecular target: HisKIX (His-tagged CBP KIX domain) (UniProt P45481); assay: fluorescence polarization at 150 µM HisKIX
[2] = molecular target: catalytic subunit of cAMP-dependent protein kinase (PKA); assay: cell-based or functional assay
[3] = molecular target: HisKIX (His-tagged CBP KIX domain) (UniProt P45481); assay: fluorescence polarization at 325 µM HisKIX
[4] = molecular target: endogenous CBP/p300 in HEK293 cells; assay: cell-based or functional assay
[5] = molecular target: full-length p300 (exogenous, CMV expression vector); assay: cell-based or functional assay
CBP KIX variant E655A = CBP KIX variant E655A (UniProt P45481); assay: fluorescence polarization
CBP KIX variant I657A = CBP KIX variant I657A (UniProt P45481); assay: fluorescence polarization
CBP KIX variant I660A = CBP KIX variant I660A (UniProt P45481); assay: fluorescence polarization
CBP KIX variant K606A = CBP KIX variant K606A (UniProt P45481); assay: fluorescence polarization
CBP KIX variant K662A = CBP KIX variant K662A (UniProt P45481); assay: fluorescence polarization
CBP KIX variant L599A = CBP KIX variant L599A (UniProt P45481); assay: fluorescence polarization
CBP KIX variant L603A = CBP KIX variant L603A (UniProt P45481); assay: fluorescence polarization
[6] = molecular target: CBP KIX variant LL652-3AA (UniProt P45481); assay: fluorescence polarization
CBP KIX variant Q661A = CBP KIX variant Q661A (UniProt P45481); assay: fluorescence polarization
[7] = molecular target: CBP KIX variant Y650A (Example 20) (UniProt P45481); assay: fluorescence polarization
CBP KIX variant Y658A = CBP KIX variant Y658A (UniProt P45481); assay: fluorescence polarization
CBP KIX variant Y658F = CBP KIX variant Y658F (UniProt P45481); assay: fluorescence polarization
[8] = molecular target: GST-KIXY650A (Y650A variant of CBP KIX) (UniProt P45481); assay: fluorescence polarization
GST-KIXY650A (Y650A variant of CBP KIX), sequence (P45481 586-665 Y650A limits assumed): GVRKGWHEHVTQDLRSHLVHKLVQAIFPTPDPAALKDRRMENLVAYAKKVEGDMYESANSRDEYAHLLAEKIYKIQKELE

CBP KIX variant I660A, sequence (P45481 586-665 I660A limits assumed): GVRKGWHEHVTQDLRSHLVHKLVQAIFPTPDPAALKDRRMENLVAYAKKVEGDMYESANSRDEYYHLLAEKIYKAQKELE
CBP KIX variant L603A, sequence (P45481 586-665 L603A limits assumed): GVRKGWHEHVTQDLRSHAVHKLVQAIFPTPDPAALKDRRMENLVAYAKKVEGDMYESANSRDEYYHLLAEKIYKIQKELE
CBP KIX variant LL652-3AA, sequence (P45481 other isoform, or with tags, fused parts or gaps mutant limits assumed): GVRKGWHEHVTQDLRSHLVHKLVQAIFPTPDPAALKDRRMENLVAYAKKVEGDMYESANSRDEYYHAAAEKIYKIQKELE
CBP KIX variant I657A, sequence (P45481 586-665 I657A limits assumed): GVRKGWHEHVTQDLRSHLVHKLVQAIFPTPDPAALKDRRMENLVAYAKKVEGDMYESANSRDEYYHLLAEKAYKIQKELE
CBP KIX variant K662A, sequence (P45481 586-665 K662A limits assumed): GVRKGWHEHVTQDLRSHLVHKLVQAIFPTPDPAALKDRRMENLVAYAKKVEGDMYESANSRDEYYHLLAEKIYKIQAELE
CBP KIX variant L599A, sequence (P45481 586-665 L599A limits assumed): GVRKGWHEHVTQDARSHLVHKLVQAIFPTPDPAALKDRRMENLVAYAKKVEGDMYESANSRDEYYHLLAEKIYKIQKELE
CBP KIX variant Y658F, sequence (P45481 586-665 Y658F limits assumed): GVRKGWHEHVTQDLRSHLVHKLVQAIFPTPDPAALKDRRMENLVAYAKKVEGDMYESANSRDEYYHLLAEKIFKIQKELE
CBP KIX variant K606A, sequence (P45481 586-665 K606A limits assumed): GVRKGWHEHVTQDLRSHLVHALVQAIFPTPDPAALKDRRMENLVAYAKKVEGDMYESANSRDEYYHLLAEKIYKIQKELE
CBP KIX variant Y650A (Example 20), sequence (P45481 586-665 Y650A limits assumed): as the sequence (P45481 586-665 Y650A limits assumed) above
CBP KIX variant E655A, sequence (P45481 586-665 E655A limits assumed): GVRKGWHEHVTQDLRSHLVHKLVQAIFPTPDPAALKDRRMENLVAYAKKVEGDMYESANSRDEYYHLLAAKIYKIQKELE
CBP KIX variant Q661A, sequence (P45481 586-665 Q661A limits assumed): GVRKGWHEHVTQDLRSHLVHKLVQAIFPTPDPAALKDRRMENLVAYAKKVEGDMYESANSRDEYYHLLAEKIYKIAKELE
HisKIX (His-tagged CBP KIX domain), sequence (P45481 586-672): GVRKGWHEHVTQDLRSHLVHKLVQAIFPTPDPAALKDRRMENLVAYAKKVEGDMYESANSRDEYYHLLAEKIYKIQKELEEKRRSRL
CBP KIX variant Y658A, sequence (P45481 586-665 Y658A limits assumed): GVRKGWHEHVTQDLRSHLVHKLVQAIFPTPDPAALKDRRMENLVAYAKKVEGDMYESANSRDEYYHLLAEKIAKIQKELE

**Q.** With “KID-AB^U, fluorescein-labelled (peptide)” as the substance, how does the change in polarization [1] read?
**A.** Its change in polarization is 61 mP.

**Q.** Which IC50, inhibition of PKA phosphotransferase activity [2] does the source give for “PKI^A21C alkylated with bromoacetamide (peptide)” here?
**A.** The IC50, inhibition of PKA phosphotransferase activity was greater than 1000 nM.

**Q.** For KID-B^U, fluorescein-labelled (peptide), which change in polarization [3] is on record?
**A.** Its change in polarization is 76 mP.

**Q.** Which fold activation of Gal4 luciferase reporter in HEK293 cells, with forskolin [4] does the source give for “Gal4 DBD (residues 1-147) fusion of KID-AB (from UniProt P04386 1-147)” here?
**A.** Its fold activation of Gal4 luciferase reporter in HEK293 cells, with forskolin is 7.5 fold.

**Q.** And the fold activation of Gal4 luciferase reporter, with forskolin and exogenous p300 [5]?
**A.** The fold activation of Gal4 luciferase reporter, with forskolin and exogenous p300 was 20 fold.

**Q.** Which results are given for “KID-AB^P (full-length CREB KID domain, residues 119-148, phosphorylated), fluorescein-labelled (peptide)”?
**A.** Kd (CBP KIX variant E655A): 710 nM; ΔΔG against wild type CBP KIX (CBP KIX variant E655A): 0.32 kcal/mol; Kd (CBP KIX variant I657A): 1900 nM; ΔΔG against wild type CBP KIX (CBP KIX variant I657A): 0.9 kcal/mol; Kd (CBP KIX variant I660A): 270 nM; ΔΔG against wild type CBP KIX (CBP KIX variant I660A): -0.26 kcal/mol; Kd (CBP KIX variant K606A): 2300 nM; ΔΔG against wild type CBP KIX (CBP KIX variant K606A): 1 kcal/mol; Kd (CBP KIX variant K662A): 4800 nM; ΔΔG against wild type CBP KIX (CBP KIX variant K662A): 1.5 kcal/mol; Kd (CBP KIX variant L599A): 1100 nM; ΔΔG against wild type CBP KIX (CBP KIX variant L599A): 0.58 kcal/mol; Kd (CBP KIX variant L603A): 3400 nM; ΔΔG against wild type CBP KIX (CBP KIX variant L603A): 1.2 kcal/mol; Kd [6]: 2900 nM; ΔΔG against wild type CBP KIX [6]: 1.2 kcal/mol; Kd (CBP KIX variant Q661A): 930 nM; ΔΔG against wild type CBP KIX (CBP KIX variant Q661A): 0.48 kcal/mol; Kd [7]: 9400 nM; ΔΔG against wild type CBP KIX [7]: 1.8 kcal/mol; Kd (CBP KIX variant Y658A): 142000 nM; ΔΔG against wild type CBP KIX (CBP KIX variant Y658A): 3.5 kcal/mol; Kd (CBP KIX variant Y658F): 26000 nM; ΔΔG against wild type CBP KIX (CBP KIX variant Y658F): 2.5 kcal/mol; fold less stable than the wild type GST-KIX complex [8]: 15 fold
